Tests used:
[1] = target: HIV-1 Env of strain 0330.v4.c3 (HIV-1)
[2] = target: HIV-1 Env of strain 0815.v3.c3 (HIV-1)
[3] = target: HIV-1 Env of strain 1006_11_C3_1601 (HIV-1)
[4] = target: HIV-1 Env of strain 1054_07_TC4_1499 (HIV-1)
[5] = target: HIV-1 Env of strain 1056_10_TA11_1826 (HIV-1)
[6] = target: HIV-1 Env of strain 211-9 (HIV-1)
[7] = target: HIV-1 Env of strain 3103.v3.c10 (HIV-1)
[8] = target: HIV-1 Env of strain 3415.v1.c1 (HIV-1)
[9] = target: HIV-1 Env of strain 3718.v3.c11 (HIV-1)
[10] = target: HIV-1 Env of strain 3817.v2.c59 (HIV-1)
[11] = target: HIV-1 Env of strain 620345.c01 (HIV-1)
[12] = target: HIV-1 Env of strain 6535.3 (HIV-1)
[13] = target: HIV-1 Env of strain 6545.v4.c1 (HIV-1)
[14] = target: HIV-1 Env of strain 6811.v7.c18 (HIV-1)
[15] = target: HIV-1 Env of strain 89-F1_2_25 (HIV-1)
[16] = target: HIV-1 Env of strain AC10.0.29 (HIV-1)
[17] = target: HIV-1 Env of strain C1080.c03 (HIV-1)
[18] = target: HIV-1 Env of strain C2101.c01 (HIV-1)
[19] = target: HIV-1 Env of strain CAP210.2.00.E8 (HIV-1)
[20] = target: HIV-1 Env of strain CAP45.2.00.G3 (HIV-1)
[21] = target: HIV-1 Env of strain CNE17 (HIV-1)
[22] = target: HIV-1 Env of strain CNE20 (HIV-1)
[23] = target: HIV-1 Env of strain CNE21 (HIV-1)
[24] = target: HIV-1 Env of strain CNE30 (HIV-1)
[25] = target: HIV-1 Env of strain CNE53 (HIV-1)
[26] = target: HIV-1 Env of strain CNE58 (HIV-1)
[27] = target: HIV-1 Env of strain Ce0393_C3 (HIV-1)
[28] = target: HIV-1 Env of strain Ce0682_E4 (HIV-1)
[29] = target: HIV-1 Env of strain Ce2010_F5 (HIV-1)
[30] = target: HIV-1 Env of strain Ce703010054_2A2 (HIV-1)
[31] = target: HIV-1 Env of strain Du156.12 (HIV-1)
[32] = target: HIV-1 Env of strain Du172.17 (HIV-1)
[33] = target: HIV-1 Env of strain Du422.1 (HIV-1)
[34] = target: HIV-1 Env of strain HIV-16845-2.22 (HIV-1)
[35] = target: HIV-1 Env of strain P1981_C5_3 (HIV-1)
[36] = target: HIV-1 Env of strain PVO.4 (HIV-1)
[37] = target: HIV-1 Env of strain Q23.17 (HIV-1)
[38] = target: HIV-1 Env of strain Q461.e2 (HIV-1)
[39] = target: HIV-1 Env of strain Q842.d12 (HIV-1)
[40] = target: HIV-1 Env of strain R1166.c01 (HIV-1)
[41] = target: HIV-1 Env of strain REJO4541.67 (HIV-1)
[42] = target: HIV-1 Env of strain RHPA4259.7 (HIV-1)
[43] = target: HIV-1 Env of strain SC422661.8 (HIV-1)
[44] = target: HIV-1 Env of strain T257-31 (HIV-1)
[45] = target: HIV-1 Env of strain T278-50 (HIV-1)
[46] = target: HIV-1 Env of strain THRO4156.18 (HIV-1)
[47] = target: HIV-1 Env of strain TRJO4551.58 (HIV-1)
[48] = target: HIV-1 Env of strain TRO.11 (HIV-1)
[49] = target: HIV-1 Env of strain WEAU_d15_410_787 (HIV-1)
[50] = target: HIV-1 Env of strain WITO4160.33 (HIV-1)
[51] = target: HIV-1 Env of strain X1193_c1 (HIV-1)
[52] = target: HIV-1 Env of strain X1254_c3 (HIV-1)
[53] = target: HIV-1 Env of strain ZM135M.PL10a (HIV-1)
[54] = target: HIV-1 Env of strain ZM197M.PB7 (HIV-1)
[55] = target: HIV-1 Env of strain ZM214M.PL15 (HIV-1)
[56] = target: HIV-1 Env of strain ZM247v1(Rev-) (HIV-1)
[57] = target: HIV-1 Env of strain ZM53M.PB12 (HIV-1)

Substance NIH45-46 G54F IgG (antibody) has an In vitro neutralization IC80 [1] of 0.13 µg/mL, an In vitro neutralization IC80 [2] of 0.014 µg/mL and an In vitro neutralization IC80 [3] of 0.024 µg/mL. The In vitro neutralization IC80 [4] was 0.283 µg/mL, the In vitro neutralization IC80 [5] was 0.283 µg/mL and the In vitro neutralization IC80 [6] was greater than 50 µg/mL. For the same substance, the In vitro neutralization IC80 [7] was 1.28 µg/mL, the In vitro neutralization IC80 [8] was 0.029 µg/mL and the In vitro neutralization IC80 [9] was 4.62 µg/mL. It also gave an In vitro neutralization IC80 [10] greater than 50 µg/mL, an In vitro neutralization IC80 [11] greater than 50 µg/mL and an In vitro neutralization IC80 [12] of 0.27 µg/mL. For the same substance, the In vitro neutralization IC80 [13] was greater than 50 µg/mL, the In vitro neutralization IC80 [14] was 0.063 µg/mL and the In vitro neutralization IC80 [15] was greater than 50 µg/mL. For the same substance, the In vitro neutralization IC80 [16] was 1.12 µg/mL, the In vitro neutralization IC80 [17] was 2.26 µg/mL and the In vitro neutralization IC80 [18] was 0.42 µg/mL. The In vitro neutralization IC80 [19] was greater than 50 µg/mL, the In vitro neutralization IC80 [20] was greater than 50 µg/mL and the In vitro neutralization IC80 [21] was 0.287 µg/mL. For the same substance, the In vitro neutralization IC80 [22] was 3.91 µg/mL, the In vitro neutralization IC80 [23] was 0.66 µg/mL and the In vitro neutralization IC80 [24] was 0.348 µg/mL. For the same substance, the In vitro neutralization IC80 [25] was 0.024 µg/mL, the In vitro neutralization IC80 [26] was 0.11 µg/mL and the In vitro neutralization IC80 [27] was 0.173 µg/mL. For the same substance, the In vitro neutralization IC80 [28] was 0.056 µg/mL, the In vitro neutralization IC80 [29] was 0.186 µg/mL and the In vitro neutralization IC80 [30] was 0.07 µg/mL. For the same substance, the In vitro neutralization IC80 [31] was 0.019 µg/mL, the In vitro neutralization IC80 [32] was greater than 50 µg/mL and the In vitro neutralization IC80 [33] was greater than 50 µg/mL. The In vitro neutralization IC80 [34] was 2.75 µg/mL, the In vitro neutralization IC80 [35] was 0.11 µg/mL and the In vitro neutralization IC80 [36] was 0.25 µg/mL. It also gave an In vitro neutralization IC80 [37] of 0.07 µg/mL, an In vitro neutralization IC80 [38] of 0.135 µg/mL and an In vitro neutralization IC80 [39] of 0.039 µg/mL. For the same substance, the In vitro neutralization IC80 [40] was 1.32 µg/mL, the In vitro neutralization IC80 [41] was 0.028 µg/mL and the In vitro neutralization IC80 [42] was 0.02 µg/mL. The In vitro neutralization IC80 [43] was 0.1 µg/mL, the In vitro neutralization IC80 [44] was 0.51 µg/mL and the In vitro neutralization IC80 [45] was greater than 50 µg/mL. For the same substance, the In vitro neutralization IC80 [46] was 3.01 µg/mL, the In vitro neutralization IC80 [47] was 0.08 µg/mL and the In vitro neutralization IC80 [48] was 0.3 µg/mL. The In vitro neutralization IC80 [49] was 0.004 µg/mL, the In vitro neutralization IC80 [50] was 0.14 µg/mL and the In vitro neutralization IC80 [51] was 0.026 µg/mL. The In vitro neutralization IC80 [52] was 0.043 µg/mL, the In vitro neutralization IC80 [53] was 0.43 µg/mL and the In vitro neutralization IC80 [54] was 0.23 µg/mL. The In vitro neutralization IC80 [55] was 0.3 µg/mL, the In vitro neutralization IC80 [56] was 2.45 µg/mL and the In vitro neutralization IC80 [57] was 0.23 µg/mL.

— patent US20200165325A1
